Here are results for one molecule from patent publication US7691806B2, “Repeat sequence protein polymer active agent congjugates, methods and uses” (priority 2003, dated 2010).

In the test the test system is Human dermal fibroblasts. The experiment in a line: Fibroblast cell survival after UVB exposure (MTT assay). Format: cell-based. As to conditions: UVB approximately 50 mj/cm^2, treated after exposure, MTT 48 hours later. The source says: Construction, analysis and verification of the SELP47K-P4 (SEQ. ID. NO. 36) conjugate proceeded as follows. SELP constructs in which all polymer subunits contain additional P4 (ALSYP) peptide sequences were made as follows: Artificial gene synthesis was used to create a 2 subunit version of the desired construct in which each identical subunit contains a unique non-palindromic restriction site. Specifically, SELP subunits contained either BBI derived P4 sequences (Seq ALSYP) incorporated in two places per subunit, flanking the silk region, incorporated between the C-terminal end of the silk region and the N-terminal end of the elastin region. A BsgI restriction enzyme cleavage site was designed within each subunit. Gene construction was carried out by Blue Heron Biotechnology (Bothell, Wash.). […] Resulting modified SELP monomers as well as plasmid vector were purified from agarose gels and concentrated using a Spin Vac. Monomers were self ligated using T4 DNA ligase (New England Biolabs) as per manufacturer's instructions overnight at 16 C. Original purified vector was added to ligation mix with additional fresh ligase and incubated at 16 C for an additional 24 hrs. Ligation mix was used to transform E. coli TOP10 cells (Invitrogen) as per manufacturer's instructions. Resulting transformants were used to inoculate culture tubes containing 5 ml Luria broth and appropriate antibiotic. […]
(Tetrazolium assays rely on reduction of a dye to a coloured formazan, in cell work by metabolically active cells.)

B1: SELP47K-P4 (protein)
chain: MDPVVLQRRDWENPGVTQLNRLAAHPPFASDPMGAGAGSGAGAGSALSYPGVGVPGVGVPGVGVPGVGVPGKGVPGVGVPGVGVPGVGVPALSYPGAGAGSGAGAGSGAGAGSGAGAGSALSYPGVGVPGVGVPGVGVPGVGVPGKGVPGVGVPGVGVPGVGVPALSYPGAGAGSGAGAGSGAGAGSGAGAGSALSYPGVGVPGVGVPGVGVPGVGVPGKGVPGVGVPGVGVPGVGVPALSYPGAGAGSGAGAGSGAGAGSGAGAGSALSYPGVGVPGVGVPGVGVPGVGVPGKGVPGVGVPGVGVPGVGVPALSYPGAGAGSGAGAGSGAGAGSGAGAGSALSYPGVGVPGVGVPGVGVPGVGVPGKGVPGVGVPGVGVPGVGVPALSYPGAGAGSGAGAGSGAGAGSGAGAGSALSYPGVGVPGVGVPGVGVPGVGVPGKGVPGVGVPGVGVPGVGVPALSYPGAGAGSGAGAGSGAGAGSGAGAGSALSYPGVGVPGVGVPGVGVPGVGVPGKGVPGVGVPGVGVPGVGVPALSYPGAGAGSGAGAGSGAGAGSGAGAGSALSYPGVGVPGVGVPGVGVPGVGVPGKGVPGVGVPGVGVPGVGVPALSYPGAGAGSGAGAGSGAGAGSGAGAGSALSYPGVGVPGVGVPGVGVPGVGVPGKGVPGVGVPGVGVPGVGVPALSYPGAGAGSGAGAGSGAGAGSGAGAGSALSYPGVGVPGVGVPGVGVPGVGVPGKGVPGVGVPGVGVPGVGVPALSYPGAGAGSGAGAGSGAGAGSGAGAGSALSYPGVGVPGVGVPGVGVPGVGVPGKGVPGVGVPGVGVPGVGVPALSYPGAGAGSGAGAGSGAGAGSGAGAGSALSYPGVGVPGVGVPGVGVPGVGVPGKGVPGVGVPGVGVPGVGVPALSYPGAGAGSGAGAGSGAGAGSGAGAGSALSYPGVGVPGVGVPGVGVPGVGVPGKGVPGVGVPGVGVPGVGVPALSYPGAGAGSGAGAGSGAGAMDPGRYQDLRSHHHHHH
modifications: P4-SELP47K silk, elastin ad UV-protective peptides
Take B1: the “viability improvement of UV treated human fibroblast cells” value turned out to be 100%.
